Experiment: soluble on expression in E. coli; label from the status in PepcDB or PDB records

Sequence | soluble on expression in E. coli
MFRAAAPGQLRRAASLLRFQSTLVIAEHANDSLAPITLNTITAATRLGGEVSCLVAGTKCDKVAQDLCKVAGIAKVLVAQHDVYKGLLPEELTPLILATQKQFNYTHICAGASAFGKNLLPRVAAKLEVAPISDIIAIKSPDTFVRTIYAGNALCTVKCDEKVKVFSVRGTSFDAAATSGGSASSEKASSTSPVEISEWLDQKLTKSDRPELTGAKVVVSGGRGLKSGENFKLLYDLADQLHAAVGASRAAVDAGFVPNDMQVGQTGKIVAPELYIAVGISGAIQHLAGMKDSKTIVAINKDPEAPIFQVADYGIVADLFKVVPEMTEILKKK | soluble
MGSDKIHHHHHHMKTAILDRFVFSDEVRDIIENAPEIIIPESRKEILDLAIAGRDLFEVGYEVPGKGFVVEATVTRCKNGLVVNYPEPYMRRRDPNALVVGDNLETDKPRFRERFGKEFEPIRQETFEWLKKQELILLPFMAGGYDYGYPAVLIAPKNAGFFVGGLADLQFFVPASEVPENFKPKLYMFLAPPFRHTHFDGKQVVVHYRHNSHYEIFSYNLYPGPSAKKGVYGFLLHVGEKEKWVTAHASAVKVITPYENELVIMHEGASGGGKSEILEEIHREPDGRIKLAENIVTGEKFYMELKQSCVLMPVADDMFMCHPKLQTGKKLVAKDAEAGWFIRVDHITEYGSAPDLERLTIHPPEPLIFLNIYAVPNSTALIWEHIEDEPGKPCPNPRVIIPKRFMKNAVSEPVKVDVRSFGVRTPPCTKEKPTYGIVGLMQILPPALAWLWRLVAPRGHANPSIVSTKGMTSEGVGSFWPFSSGKMVRLANILLEQIIDTPETRYILVPNQYIGAYKVGFMPEWIAREYLSRRGGVRFRPDQLVPSKCSLLGFSLKEMKIEGNTIPKELLQPHLQSEVGEEAYEKGAQELKDFFKRELKKFLTEDLNPVGREIIQCCLDDGSLDDYLKIIPMNF | not soluble
MQCNVCEFGCEIDEYSRGRCRTYVCTGDTIIQDPDMGYLGAYPVSIETIPLLHYYPSGKFLQVFGTGCNFQCSGCVARLLASGKSLSSTTLTPSQVVEKALQQDCLGVVSTLNEPAANYYLFRDLAVQAKEKGLLVGCSTNCYFTEETLNKLGQLVDFMNVGIKGYSDRSYISCGVPSSAPVFRNISLLFDMGVHVETSVVYSRGNEADVIKVAEAVSDISPTIPVQVMRFIPFGDAPIELEPSVGEAESLCADLRKYVDYVYLFNSPGTELLNTYCPECGSLLAEREFYGPMGSRPVRPWITYSCDCGKTVPVKGTTAVERFNEEGFMGGYRISRAFGMVHGVLTCLGILDDSRLIDVWREISDSGTLMKVHHMIQQPYAYLDFVRLIAERANMPEKGEELISFIHTRLELVKSLAAENSGHKVYYCMGSPLFALNAGRMENNLVAFSGGLSINKQLQKEGKPGINVSPSFINENNPDTIFISGFLSRPLDEFYTLCRQYGIETDAVKQQRVYEVPPSWDFGNPRWILGLMYIADKLYPGNSGIDLEKEADEFYRQFYGMPYLEHHHHHH | not soluble
MYCIEEKIEKALGIKEASLVLKNCNIVNVFSSEIIRGDLAIDGDTIIGIGKYKGKTEIDLSNKYVAPGFIDSHVHIESSMVSPKEFARAVISRGTTTIIVDPHEIANVCGMDGIKYMMEETKNMPLDVFFMLSSCVPLEHHHHHH | not soluble
MPMIIKQEQFIPKDTVETTIDLLIRNLTTIKDNTGEFLLDFDGLKVDDKSWTIWNWPQGVGLYGIYKNYRNTKSEKALQVVNDWFEGRMQEGAPPKNVNTMAPLLTMAYLYEDTKDSKYIPYLEQWAEWVMEEMPRTNEGGLQHATYGPENKNQLWDDTLMMTVLPLAKIGKLLNRLDYLEEAKHQFLIHIKYLQDKKSGLWYHGWTFEGNHNYAEALWARGNCWITIAIPEIIEILELPKGDSLREFLLSTLNAQVAALAKYQDESGLWHTLINDSNSYLESSATAGFAYGILKAVHKKYISSEYEEVANKAIAGLLNEIDETGEVQHVSVGTGMGDNLDFYRTIGMTAMPYGQSLTILCLTELLVSYC | not soluble
PKATAQMEGRLQEFLTAYAPGARLALADGVLGFIHHQIVELARDCLAKSGENLVTSRYFLEMQEKLERLLQDAHERSDSEEVSFIVQLVRKLLIIISRPAR | soluble
MGSDKIHHHHHHMELVSVKRIWEQGEHNAFTDLVLYQGTLFCVFREGSAHVSPDGALRILRSHDAGETWQSVALLTSAHADLRDGKLIEFRGELLLLGGGTQHDKSGLQSYLWRSKDGVHWSEPQAVADKGYWLWRLTEHQDALYGVGYRAGPDGDTRLYKSDDSVEFTPWMPVFNNQGYVNESSLVFHQGSCFCLLRRDPVWSDEFLGLLGHSLSPFKQWTWQTLDKRIGGPVLFVYQSRLMAVVRLYEGDIRTALVEINQDTGQLHEWLTLPSQGDTSYAGIVLDGDDLLVSYYSSHEQAMVSDLERSDTQDDKAQDKFKTMIYFAKIKLGQN | not soluble
MQAKPQIPKDKSKVAGYIEIPDADIKEPVYPGPATPEQLNRGVSFAEENESLDDQNISIAGHTFIDRPNYQFTNLKAAKKGSMVYFKVGNETRKYKMTSIRDVKPTDVGVLDEQKGKDKQLTLITCDDYNEKTGVWEKRKIFVATEVK | soluble
MGPSRWPRGGGRLLGRLYLVVTPRPGWSLEATLDRTERALAGGVEVVQLRAKDWEARPTLALGERMLALARRYGVPFFLNDRPDLAALLGADGVHLGQNDLTPEEARRFFAGMVGRSTHAPEQALRALEEGVDYLSVGPVWETPTKPGRPAAGLAYVRWAAENLGEKPWYAIGGIDLGNLDQVLEAGARRIVVVRAILDAPDPERAARALRERLYGVA | soluble
MFNQTQTVTYPATFLGAKKFKGEIDGSNIDTCSVLVATPLPAQSGNAVGFTAAQMKFGDSKNFSKLENLKYPCEVMVTVEMTSTGKGMVPSLIDFQVAEKPKG | not soluble
MGGVTSKVNVDVVQEQVKKDPVVMYTKTSCTFCNRAKDLFSDVRVAYKEVNLDTLKASQPDDYLGIVNGLVYTTRQTSVPQIFVCGRFIGGYTELDALRNSGHLFEAIAQCTGENSPKE | not soluble
MGSDKIHHHHHHMAAVGPRTGPGTGAEALALAAELQGEATCSICLELFREPVSVECGHSFCRACIGRCWERPGAGSVGAATRAPPFPLPCPQCREPARPSQLRPNRQLAAVATLLRRFSLPAAAPGEHGSQAAAARAAAARCGQHGEPFKLYCQDDGRAICVVCDRAREHREHAVLPLDEAVQEAKELLESRLRVLKKELEDCEVFRSTEKKESKELLKQMAAEQEKVGAEFQALRAFLVEQEGRLLGRLEELSREVAQKQNENLAQLGVEITQLSKLSSQIQETAQKPDLDFLQEFKSTLSR | not soluble
MGSDKIHHHHHHMINTKEDFLLLIKQIEQKSGYKKPKAFGIARLDRGQLNKNKILQASFALINYEQNFGSAAIMLEAFMQRGVEIDFNASEFVQTLKLEDIDFALSCFKPFLEEDGHQNIDLLKIIKDKFKDDEFSFVCLFEDKEPLSVESIYLKLYLLSTKKVPLRSINLNGAFGLLSNVAWSDDKPIELEYLRANEMRLKMSNQYPKIDFVDKFPRFLAHIIPEDNTRILESSKVRMGASLAAGTTIMPGASYVNFNAGTTGACMVEGRISSSAIVGEGSDVGGGASILGVLSGTSGNAISVGKACLLGANSVTGIPLGDNCIVDAGIAVLEGTKFLLKDAEELAKLNPYFNFDKEIYKGLELKGLNGLHFRQDSISGAMIVALNKKAVKLNEALH | not soluble
DSDWEDIHYAYFSAICQARKNVYIETPYFIPDESLLKAIKSAALSGVDVRIIFPKIADHKIVNIASYSYFEEILRAGGKVYLYNKGFIHSKVVIIDDKIASAGTANMDLRSFMLNFEVNAFIYDEEVIRVMTDDFFEDLSYCEELNLEVFKNR | not soluble
WMQTSDGLRIRAGHWRPEGEVRGTVLMFPGRTEYVEKYGNAAQAFVTRGFAMLAVDWRGQGLADRLLEDRRLGHVLEFTDYQRDVAAVVELATTLDLPRPWFVVGHSMGGAIGLRAVMEGLPVAACAFTGPMWGIFFTPVMKPLSWITANLAPAIGMGHKHPATTTLEPYVQAQEFEGNSLTRDPAMYEMMRSQLAAHPELALGAPTNIWLREALAECRALSDRPSPDLPCLTFLGSHEQIVDRKAVRARMARWPRGELVEIPDGEHEVLMEAPEVRDPAYDRM | not soluble
GPGSMVDVIIYTRPGCPYCARAKALLARKGAEFNEIDASATPELRAEMQERSGRNTFPQIFIGSVHVGGCDDLYALEDEGKLDSLLKTGKLI | soluble
KNNINKTRMNDLNREETRLKTFTDWPLDWLDKRQLAQTGMYFTHAGDKVKCFFCGVEIGSWEQEDQPVPEHQRWSPNCPLLRRRTTNNVPINAEALDRILPPISYDICGANDSTLE | soluble
MCGRFAYIASYDKLKYQFHLANAIEVPPRFNISPGADVLCLVETDGHKIQCVLLRWGFIPSWATDRKKLGNLINARAETVFEKPTFRQSIKSKRCLIPMSGFYEWRQEDGVKQPYFFQKKNHDLLAVAAIRDTWQQSDEVIHSCCLITTDANAFMQPVHNRMPVILGEEAQAIWLNNTQYDKAQLMALMKPYPYEDLEGYRVTTLVNKANFDHPLAMEPLSELEHHHHHH | soluble
MCTDHQWINSAIRKIEADYQRSADTHLIKLDLPCVSGVDIYLKDESTHPTGSLKHRLARSLFLYGLCNGWIGPETTIIESSSGSTAVSEAYFARLLGLPFIAVMPKCTARKKIEQIQFYGGKAHLVDRSDQIYAESHRLAKELKGHYMDQFTYAERATDWRGNSNIADSIFSQMQMEQHPVPSWIVMSPGTGGTSATIGRFIRYQQYNTKLCVVDPENSVFYDYYRTRNAELTRDCGSKIEGIGRPRVEPSFIPDVVDEMRAIPDAASVATIYWLEKILGRKAGASTGTNLYGALQLACEMKRRGEQGSIVTLLCDSGERYLDTYYNSEWVKNNIGDLSKYLHKLETFSATGCLD | not soluble
MASKPGERKTQILHTLAEMLEQPHAARITTSALAARMQVSEAALYRHFASKAQMFEGLIEFIETSIFTVVNQIAVSEPYGMGQARKTVAMLLAFAERNRGITRVLTGDALVTEDNRLQERINHINDRIEASLKQCLRVAVSDGALPADANIAAHASLLTHLVLGRWLRYAQSGWRVAPTTHLEEHLRLALG | not soluble
MSHLNYNHLYYFWMVCKQGSVTKAAEALFLTPQTVTGQIKALEDRLDGKLTKRNGRNIEPTELGQLIYKYADRMFGLSYEMLDIVNYSQQANVLFDVGVADALSKRLVSKVLSTTVPEDASIHLRCFESTHELLLEQLSQHKLDMILSDCPVDSSQNSGLFSKKLGECEMSFFCSKELKGVTFPEVLEKHKVLIPGSRTSMGRKVVQWCDQQGVTPNILGEFDDVALMKAFARENNAVFLAPSVYMNEADSDLSLHKIADVRDLKEEYYVIFAERMIQHPAVKSICEADFSHLFDF | not soluble
MDYRVLLYYKYTTIDDPELFATEHLAFCKDLELKGRILVSTEGINGTVSGTVEATDKYMEALKNDARFQGITFKVDEAEGHAFKKMHVRPRQEIVALDLEDDVNPRELTGNYLSPKEFREALLSDDTVVIDARNDYEYDLGHFRGAVRPDITRFRDLPDWIKENKEQFMDKKIVTYCTGGIRCEKFSGYLLKEGFEDVSQLEGGIATYGKDPETKGEFWDGKMYVFDERISVEVNHVDKTVVGKEWFDGTPCERYINCSNPECNKQILVSEENEARYLGACSHECAKHENNRYVKKHNISDEEKAKRLENFKELVKLEHHHHHH | not soluble
IIGGNEVTPHSRPYMVLLSLDRKTICAGALIAKDWVLTAAHCNLNKRSQVILGAHSITREEPTKQIMLVKKEFPYPCYDPATREGDLKLLQLTEKAKINKYVTILHLPKKGDDVKPGTMCQVAGWGRTHNSASWSDTLREVNITIIDRKVCNDRNHYNFNPVIGMNMVCAGSLRGGRDSCNGDSGSPLLCEGVFRGVTSFGLENKCGDPRGPGVYILLSKKHLNWIIMTIKGAV | soluble
